From patent US20220041718A1 (AUTOLUS, published 2022)
Changes are numbered by the printed parent chain. In names and notes the source's numbering stands.

B1: anti-TRBC2 scFv (T28K, Y32F, A100N, Y102L, N103M in VH; N35R in VL of hJovi-1) (scFv)
scFv: QVQLVQSGAEVKKPGASVKVSCKASGYKFTGFVMHWVRQAPGQGLEWMGFINPYNDDIQSNERFRGRVTMTRDTSISTAYMELSRLRSDDTAVYYCARGNGLMFDGAYRFFDFWGQGTMVTVSSGGGGSGGGGSGGGGSDIVMTQSPLSLPVTPGEPASISCRSSQRLVHSNGRTYLHWYLQKPGQSPRLLIYRVSNRFPGVPDRFSGSGSGTDFTLKISRVEAEDVGVYYCSQSTHVPYTFGQGTKLEIKR
notes: the format in the assay is unsure
B2: anti-TRBC2 scFv-COMP (T28K, Y32F, A100N, Y102L, N103M in VH; N35R in VL of hJovi-1) (other)
chain: QVQLVQSGAEVKKPGASVKVSCKASGYKFTGFVMHWVRQAPGQGLEWMGFINPYNDDIQSNERFRGRVTMTRDTSISTAYMELSRLRSDDTAVYYCARGNGLMFDGAYRFFDFWGQGTMVTVSSGGGGSGGGGSGGGGSDIVMTQSPLSLPVTPGEPASISCRSSQRLVHSNGRTYLHWYLQKPGQSPRLLIYRVSNRFPGVPDRFSGSGSGTDFTLKISRVEAEDVGVYYCSQSTHVPYTFGQGTKLEIKRSGGGGSGGGGSGGGGSAGSDLGPQMLRELQETNAALQDVRELLRQQVREITFLKNTVMECDACGSGKKDPKSGGGGSYPYDVPDYA
notes: scFv fused to the COMP coiled-coil
B3: anti-TRBC2 scFv-Fc (T28K, Y32F, A100N, Y102L, N103M in VH; N35R in VL of hJovi-1) (Fc fusion)
chain: QVQLVQSGAEVKKPGASVKVSCKASGYKFTGFVMHWVRQAPGQGLEWMGFINPYNDDIQSNERFRGRVTMTRDTSISTAYMELSRLRSDDTAVYYCARGNGLMFDGAYRFFDFWGQGTMVTVSSGGGGSGGGGSGGGGSDIVMTQSPLSLPVTPGEPASISCRSSQRLVHSNGRTYLHWYLQKPGQSPRLLIYRVSNRFPGVPDRFSGSGSGTDFTLKISRVEAEDVGVYYCSQSTHVPYTFGQGTKLEIKRSDPRGPTIKPCPPCKCPAPNLLGGPSVFIFPPKIKDVLMISLSPIVTCVVVDVSEDDPDVQISWFVNNVEVHTAQTQTHREDYNSTLRVVSALPIQHQDWMSGKEFKCKVNNKDLPAPIERTISKPKGSVRAPQVYVLPPPEEEMTKKQVTLTCMVTDFMPEDIYVEWTNNGKTELNYKNTEPVLDSDGSYFMYSKLRVEKKNWVERNSYSCSVVHEGLHNHHTTKSFSRTPGK
notes: Multivalent format
B4: hJovi-1 variant IgG, VH T28K, Y32F, A100N, Y102F, N103M; VL N35K (antibody, V domains shown)
VH: QVQLVQSGAEVKKPGASVKVSCKASGYKFTGFVMHWVRQAPGQGLEWMGFINPYNDDIQSNERFRGRVTMTRDTSISTAYMELSRLRSDDTAVYYCARGNGFMFDGAYRFFDFWGQGTMVTVSS
VL: DIVMTQSPLSLPVTPGEPASISCRSSQRLVHSNGKTYLHWYLQKPGQSPRLLIYRVSNRFPGVPDRFSGSGSGTDFTLKISRVEAEDVGVYYCSQSTHVPYTFGQGTKLEIK
notes: IgG format
B5: hJovi-1 variant IgG, VH T28K, Y32F, A100N, Y102L, N103W; VL N35R (antibody, V domains shown)
VH: B4 VH with F102L, M103W
VL: B4 VL with K35R
notes: IgG format
B6: hJovi-1 variant IgG, VH Y27W, T28K, Y32F, A100N; VL unmutated (antibody, V domains shown)
VH: B4 VH with Y27W, F102Y, M103N
VL: B4 VL with K35N
notes: IgG format
B7: hJovi-1 variant IgG, VH T28K, Y32F, A100N; VL N35R (antibody, V domains shown)
VH: B4 VH with F102Y, M103N
VL: B4 VL with K35R
notes: IgG format
B8: hJovi-1 variant IgG, VH V2K, T28K, Y32F, A100N; VL unmutated (antibody, V domains shown)
VH: B4 VH with V2K, F102Y, M103N
VL: B4 VL with K35N
notes: IgG format
B9: hJovi-1 variant IgG, VH T28K, Y32F, A100N, Y102F, N103M; VL N35R (antibody, V domains shown)
VH: B4 VH
VL: B4 VL with K35R
notes: IgG format
B10: hJovi-1 variant IgG, VH V2R, T28K, Y32F, A100N; VL unmutated (antibody, V domains shown)
VH: B4 VH with V2R, F102Y, M103N
VL: B4 VL with K35N
notes: IgG format
B11: hJovi-1 variant IgG, VH T28K, Y32F, A100N; VL N35K (antibody, V domains shown)
VH: B4 VH with F102Y, M103N
VL: B4 VL
notes: IgG format
B12: hJovi-1 variant IgG, VH Y27F, T28K, Y32F, A100N; VL unmutated (antibody, V domains shown)
VH: B4 VH with Y27F, F102Y, M103N
VL: B4 VL with K35N
notes: IgG format
B13: hJovi-1 variant IgG, VH T28K, Y32F, A100N, Y102L, N103M; VL N35R (antibody, V domains shown)
VH: B4 VH with F102L
VL: B4 VL with K35R
notes: IgG format
B14: hJovi-1 variant IgG, VH T28K, Y32F, A100N, Y102L, N103W; VL N35K (antibody, V domains shown)
VH: B4 VH with F102L, M103W
VL: B4 VL
notes: IgG format
B15: hJovi-1 variant IgG, VH Y27N, T28K, Y32F, A100N; VL unmutated (antibody, V domains shown)
VH: B4 VH with Y27N, F102Y, M103N
VL: B4 VL with K35N
notes: IgG format
B16: hJovi-1 variant IgG, VH T28R, Y32F, A100N; VL unmutated (antibody, V domains shown)
VH: B4 VH with K28R, F102Y, M103N
VL: B4 VL with K35N
notes: IgG format
B17: hJovi-1 variant IgG, VH T28K, Y32F, R98K, A100N; VL unmutated (antibody, V domains shown)
VH: B4 VH with R98K, F102Y, M103N
VL: B4 VL with K35N
notes: IgG format
B18: hJovi-1 variant IgG, VH T28K, Y32F, A100N, Y102F; VL N35R (antibody, V domains shown)
VH: B4 VH with M103N
VL: B4 VL with K35R
notes: IgG format
B19: hJovi-1 variant IgG, VH T28K, Y32F, A100N; VL N35F (antibody, V domains shown)
VH: B4 VH with F102Y, M103N
VL: B4 VL with K35F
notes: IgG format
B20: hJovi-1 variant IgG, VH T28K, Y32F, A100N, Y102F; VL unmutated (antibody, V domains shown)
VH: B4 VH with M103N
VL: B4 VL with K35N
notes: IgG format

Experiments:
[1] = molecular target: T1, Recombinant purified TRBC2 (human, UniProt A0A5B9 1-129, limits assumed); assay: SPR (Biacore T200), captured anti-TRBC2 binder, recombinant TRBC2 as analyte; half-life of dissociation, t1/2 = ln 2/kd
T1 construct: Construct not described (may be a soluble TCR carrying TRBC2); also called TCR beta constant region 2; soluble recombinant biotinylated TRBC2
From the text: (§1) To test 1:1 binding interaction of the anti-TRBC2 scFv, a series S CM5 sensor chip was immobilised via amine coupling, with an anti-human Fc capture antibody to a density of 9000-10000 RU, using a Biacore T200 instrument. HBS-P+ buffer was used as running buffer in all experimental conditions. The test anti-TRBC2 antibody was captured on flow 4 to a density of 200-250 RU. Recombinant purified TRBC1 or TRBC2 at known concentrations were used as the ‘analyte’ and injected over the respective flow cells with 150s contact time and 300s dissociation at 30 μl/minute of flow rate. Flow cell 1 was unmodified and used for reference subtraction. A ‘0 concentration’ sensorgram of buffer alone was used as a double reference subtraction to factor for drift. Data were fit to a 1:1 Langmuir binding model. Since a capture system was used, a local Rₘₐₓ parameter was used for the data fitting in each case. Off-rate value was determined, and half-life calculated according to: t1/2=ln 2/kd.

[2] = molecular target: T1, Recombinant purified TRBC2; assay: SPR, 1:1 interaction, antibody captured, TRBC as analyte; t1/2=ln 2/kd
From the text: as §1

[3] = molecular target: T1, Recombinant purified TRBC2; assay: SPR (Biacore T200), biotinylated TRBC2 captured on a CAP chip, scFv-COMP injected; half-life of dissociation, t1/2 = ln 2/kd [cont.) C]
Method: (§2) To test multivalent interaction of scFv-Fc and scFv-COMP antibody formats, a series S CAP chip was immobilised with Biotin capture reagent to 2500-5000 RU. Soluble recombinant biotinylated TRBC1 and TRBC2 were captured on flow cells 3, in independent experimental cycles, to a density of 90-110 RU. Purified anti-TRBC2 scFv-Fc or scFv-COMP antibodies were injected over the flow cell with 150s contact time and 300s dissociation at 30 μl/minute of flow rate. On flow cell 1, biotinylated protein was omitted and used for reference subtraction. A ‘0 concentration’ sensorgram of buffer alone was used as a double reference subtraction to factor for drift. Data were fit to a 1:1 Langmuir binding model. Since a capture system was used, a local Rmax parameter was used for the data fitting in each case. Off-rate value was determined, and half-life calculated according to: t1/2=ln 2/kd.

[4] = molecular target: T1, Recombinant purified TRBC2; assay: SPR, biotinylated TRBC captured on CAP chip, antibody injected; t1/2=ln 2/kd
Method: as §2

[5] = molecular target: T1, Recombinant purified TRBC2; assay: SPR, IgG captured on anti-human Fc, TRBC2 as analyte
From the text: (§3) A series S CM5 sensor chip was immobilised via amine coupling, with an anti-human Fc capture antibody to a density of 9000-10000 RU, using a Biacore T200 instrument. HBS-P+ buffer was used as running buffer in all experimental conditions. The test anti-TRBC2 antibodies (Table 1) were captured on flow cells 2, 3 and 4 to a density of 100-300 RU. Recombinant purified TRBC1 or TRBC2 at known concentrations were used as the ‘analyte’ and injected over the respective flow cells with 150s contact time and 300s dissociation at 30 μl/minute of flow rate. In each experiment, flow cell 1 was unmodified and used for reference subtraction. A ‘0 concentration’ sensorgram of buffer alone was used as a double reference subtraction to factor for drift. Data were fit to a 1:1 Langmuir binding model. Since a capture system was used, a local Rₘₐₓ parameter was used for the data fitting in each case.

[6] = molecular target: T2, Recombinant purified TRBC1 (human, UniProt P01850 1-129, limits assumed); assay: SPR, IgG captured on anti-human Fc, TRBC1 as analyte
T2 construct: Construct not described (may be a soluble TCR carrying TRBC1); also called TCR beta constant region 1; soluble recombinant biotinylated TRBC1
From the text: as §3

T1 sequence (A0A5B9 1-129 limits assumed): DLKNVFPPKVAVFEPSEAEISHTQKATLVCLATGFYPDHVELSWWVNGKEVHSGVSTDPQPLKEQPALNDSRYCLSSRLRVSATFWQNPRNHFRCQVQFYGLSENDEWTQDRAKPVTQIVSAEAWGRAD
T2 sequence (P01850 1-129 limits assumed): as the sequence (A0A5B9 1-129 limits assumed) above, with K3N, N4K, K9E, Y36F counted along it

| Binder | Kd [5] [nM] | Kd [6] [nM] | further results |
| --- | --- | --- | --- |
| B1 | – | – | t1/2 [1]: 8.3 s; half-life [2]: 8 s |
| B2 | – | – | t1/2 [3]: 436 s; half-life [4]: 438 s |
| B3 | – | – | half-life [4]: 16.2 s |
| B4 | 909 | 9310 | – |
| B5 | 1510 | – | binding result [6]: no binding |
| B6 | 3060 | 21000 | – |
| B7 | 202 | 929 | – |
| B8 | 883 | 2400 | – |
| B9 | 968 | 7910 | – |
| B10 | 1600 | 5110 | – |
| B11 | 192 | 1000 | – |
| B12 | 1210 | 4480 | – |
| B13 | 1900 | – | binding result [6]: no binding |
| B14 | 1720 | – | binding result [6]: no binding |
| B15 | 6950 | 74300 | – |
| B16 | 582 | 1440 | – |
| B17 | 1080 | 4660 | – |
| B18 | 2700 | 18900 | – |
| B19 | 646 | 2810 | – |
| B20 | 2610 | – | binding result [6]: no binding |
